Laboratory results reported in article PMC4975667.

Molecular target: Human full-length BAX (1–192) wild type, recombinant (human) (UniProt Q07812)

Human full-length BAX (1–192) wild type, recombinant (from UniProt Q07812 1-192) (natural protein)
Kd: 32 µM
